Experimental data published in PMC9482650, “Quantitative fragmentomics allow affinity mapping of interactomes” (Nature Communications, 2022).

T1: LRRC7, Q96NW7
T1 sequence (Q96NW7 1440-1537, limits assumed, looked up): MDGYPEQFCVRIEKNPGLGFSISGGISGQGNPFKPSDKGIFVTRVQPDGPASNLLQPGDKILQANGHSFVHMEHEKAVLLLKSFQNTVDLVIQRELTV

T2: DFNB31_1, Q9P202
T2 sequence (Q9P202 135-233, limits assumed, looked up): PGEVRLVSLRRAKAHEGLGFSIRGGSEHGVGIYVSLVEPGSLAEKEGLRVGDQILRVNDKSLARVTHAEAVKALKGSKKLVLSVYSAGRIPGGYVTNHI

T3: DLG3_3, Q92796
T3 sequence (Q92796 374-475, limits assumed, looked up): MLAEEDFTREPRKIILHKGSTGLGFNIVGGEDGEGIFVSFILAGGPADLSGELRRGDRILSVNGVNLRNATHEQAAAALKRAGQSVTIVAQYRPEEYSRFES

T4: SHANK1, Q9Y566
T4 sequence (Q9Y566 658-767, limits assumed, looked up): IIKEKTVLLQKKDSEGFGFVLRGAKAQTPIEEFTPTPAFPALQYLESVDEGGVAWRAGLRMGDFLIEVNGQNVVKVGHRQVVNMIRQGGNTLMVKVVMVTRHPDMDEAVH

T5: ARHGAP21, Q5T5U3
T5 sequence (Q5T5U3 45-169, limits assumed, looked up): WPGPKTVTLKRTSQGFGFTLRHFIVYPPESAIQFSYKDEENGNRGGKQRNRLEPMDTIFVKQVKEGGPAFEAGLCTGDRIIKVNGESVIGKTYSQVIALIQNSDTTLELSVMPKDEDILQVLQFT

T6: SNTG2, Q9NY99
T6 sequence (Q9NY99 68-166, limits assumed, looked up): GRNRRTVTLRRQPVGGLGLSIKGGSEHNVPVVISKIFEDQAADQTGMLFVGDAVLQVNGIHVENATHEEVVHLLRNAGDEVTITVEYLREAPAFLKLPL

T7: SYNJ2BP, P57105
T7 sequence (P57105 8-110, limits assumed, looked up): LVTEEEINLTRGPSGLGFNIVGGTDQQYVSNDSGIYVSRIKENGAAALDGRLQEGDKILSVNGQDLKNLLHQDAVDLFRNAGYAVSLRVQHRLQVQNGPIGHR

T8: MPP2, Q14168
T8 sequence (Q14168 180-250, limits assumed, looked up): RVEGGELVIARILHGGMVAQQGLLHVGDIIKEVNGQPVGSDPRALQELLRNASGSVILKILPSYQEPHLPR

T9: DLG3_2, Q92796
T9 sequence (Q92796 221-321, limits assumed, looked up): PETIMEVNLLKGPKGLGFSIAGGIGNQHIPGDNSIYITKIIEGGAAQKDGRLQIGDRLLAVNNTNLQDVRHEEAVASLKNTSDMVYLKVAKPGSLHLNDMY

T10: PTPN13_1, Q12923
T10 sequence (Q12923 1088-1188, limits assumed, looked up): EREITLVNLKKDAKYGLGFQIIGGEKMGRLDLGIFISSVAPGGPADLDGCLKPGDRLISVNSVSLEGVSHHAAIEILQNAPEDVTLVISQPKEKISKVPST

T11: SIPA1L2, Q9P2F8
T11 sequence (Q9P2F8 945-1036, limits assumed, looked up): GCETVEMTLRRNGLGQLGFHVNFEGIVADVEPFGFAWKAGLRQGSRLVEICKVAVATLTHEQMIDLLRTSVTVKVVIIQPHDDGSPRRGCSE

T12: TJP3_3, O95049
T12 sequence (O95049 375-456, limits assumed, looked up): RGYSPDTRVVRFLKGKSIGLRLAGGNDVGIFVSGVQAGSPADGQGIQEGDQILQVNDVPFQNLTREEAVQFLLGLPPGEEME


target: T1, LRRC7, Q96NW7; assay: holdup assay; design: key: below the threshold = too weak to quantify, mostly under pKd 3.1 to 4; conditions: plain residues with an end cap or a label only (N-terminal biotin on a linker: ttds)

Binder	pKd
QPGTPTRTAV [MAP2K2, P36507]	below the threshold

target: T2, DFNB31_1, Q9P202; assay: holdup assay; design: key: below the threshold = too weak to quantify, mostly under pKd 3.1 to 4; conditions: plain residues with an end cap or a label only (N-terminal biotin on a linker: ttds)

Binder	pKd
QPGTPTRTAV [MAP2K2, P36507]	below the threshold

target: DLG4_2, P78352; assay: holdup assay; design: key: below the threshold = too weak to quantify, mostly under pKd 3.1 to 4; conditions: plain residues with an end cap or a label only (N-terminal biotin on a linker: ttds)
Sequence (P78352 155-259): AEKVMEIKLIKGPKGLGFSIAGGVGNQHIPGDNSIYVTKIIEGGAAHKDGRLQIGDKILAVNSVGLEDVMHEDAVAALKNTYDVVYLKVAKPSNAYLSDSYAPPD

Binder	pKd
QPGTPTRTAV [MAP2K2, P36507]	4.12

target: NHERF4_2, Q86UT5; assay: holdup assay; design: key: below the threshold = too weak to quantify, mostly under pKd 3.1 to 4; conditions: plain residues with an end cap or a label only (N-terminal biotin on a linker: ttds)
Sequence (Q86UT5 220-308): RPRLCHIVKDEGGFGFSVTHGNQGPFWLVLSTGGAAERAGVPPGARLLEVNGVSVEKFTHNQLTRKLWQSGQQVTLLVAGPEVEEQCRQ

Binder	pKd
QPGTPTRTAV [MAP2K2, P36507]	below the threshold

target: GRASP, Q7Z6J2; assay: holdup assay; design: key: below the threshold = too weak to quantify, mostly under pKd 3.1 to 4; conditions: plain residues with an end cap or a label only (N-terminal biotin on a linker: ttds)
Sequence (Q7Z6J2 96-193): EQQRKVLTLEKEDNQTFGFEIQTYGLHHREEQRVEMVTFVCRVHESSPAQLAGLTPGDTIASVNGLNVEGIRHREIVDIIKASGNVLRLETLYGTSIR

Binder	pKd
QPGTPTRTAV [MAP2K2, P36507]	4.56

target: T3, DLG3_3, Q92796; assay: holdup assay; design: key: below the threshold = too weak to quantify, mostly under pKd 3.1 to 4; conditions: plain residues with an end cap or a label only (N-terminal biotin on a linker: ttds)

Binder	pKd
QPGTPTRTAV [MAP2K2, P36507]	below the threshold

target: T4, SHANK1, Q9Y566; assay: holdup assay; design: key: below the threshold = too weak to quantify, mostly under pKd 3.1 to 4; conditions: plain residues with an end cap or a label only (N-terminal biotin on a linker: ttds)

Binder	pKd
QPGTPTRTAV [MAP2K2, P36507]	4.17

target: T5, ARHGAP21, Q5T5U3; assay: holdup assay; design: key: below the threshold = too weak to quantify, mostly under pKd 3.1 to 4; conditions: plain residues with an end cap or a label only (N-terminal biotin on a linker: ttds)

Binder	pKd
QPGTPTRTAV [MAP2K2, P36507]	below the threshold

target: T6, SNTG2, Q9NY99; assay: holdup assay; design: key: below the threshold = too weak to quantify, mostly under pKd 3.1 to 4; conditions: plain residues with an end cap or a label only (N-terminal biotin on a linker: ttds)

Binder	pKd
QPGTPTRTAV [MAP2K2, P36507]	below the threshold

target: AHNAK1, Q09666; assay: holdup assay; design: key: below the threshold = too weak to quantify, mostly under pKd 3.1 to 4; conditions: plain residues with an end cap or a label only (N-terminal biotin on a linker: ttds)
Sequence (Q09666 4-100): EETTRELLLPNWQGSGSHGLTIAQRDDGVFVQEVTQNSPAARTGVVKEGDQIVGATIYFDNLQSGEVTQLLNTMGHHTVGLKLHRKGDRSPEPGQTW

Binder	pKd
QPGTPTRTAV [MAP2K2, P36507]	below the threshold

target: LNX1_2, Q8TBB1; assay: holdup assay; design: key: below the threshold = too weak to quantify, mostly under pKd 3.1 to 4; conditions: plain residues with an end cap or a label only (N-terminal biotin on a linker: ttds)
Sequence (Q8TBB1 371-470): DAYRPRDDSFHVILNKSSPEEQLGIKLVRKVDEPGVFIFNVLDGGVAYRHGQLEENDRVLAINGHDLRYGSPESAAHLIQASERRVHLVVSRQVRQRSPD

Binder	pKd
QPGTPTRTAV [MAP2K2, P36507]	3.61

target: T7, SYNJ2BP, P57105; assay: holdup assay; design: key: below the threshold = too weak to quantify, mostly under pKd 3.1 to 4; conditions: plain residues with an end cap or a label only (N-terminal biotin on a linker: ttds)

Binder	pKd
QPGTPTRTAV [MAP2K2, P36507]	below the threshold

target: Inadl_6, Q8NI35; assay: holdup assay; design: key: below the threshold = too weak to quantify, mostly under pKd 3.1 to 4; conditions: plain residues with an end cap or a label only (N-terminal biotin on a linker: ttds)
Sequence (Q8NI35 1058-1167): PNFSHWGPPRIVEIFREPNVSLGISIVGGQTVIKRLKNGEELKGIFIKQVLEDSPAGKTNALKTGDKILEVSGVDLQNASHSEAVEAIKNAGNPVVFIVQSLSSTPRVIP

Binder	pKd
QPGTPTRTAV [MAP2K2, P36507]	below the threshold

target: PTPN3, P26045; assay: holdup assay; design: key: below the threshold = too weak to quantify, mostly under pKd 3.1 to 4; conditions: plain residues with an end cap or a label only (N-terminal biotin on a linker: ttds)
Sequence (P26045 505-587): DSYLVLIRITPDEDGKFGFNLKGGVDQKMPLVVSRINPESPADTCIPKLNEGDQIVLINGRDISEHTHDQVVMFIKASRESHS

Binder	pKd
QPGTPTRTAV [MAP2K2, P36507]	below the threshold

target: SCRIB_3, Q14160; assay: holdup assay; design: key: below the threshold = too weak to quantify, mostly under pKd 3.1 to 4; conditions: plain residues with an end cap or a label only (N-terminal biotin on a linker: ttds)
Sequence (Q14160 999-1103): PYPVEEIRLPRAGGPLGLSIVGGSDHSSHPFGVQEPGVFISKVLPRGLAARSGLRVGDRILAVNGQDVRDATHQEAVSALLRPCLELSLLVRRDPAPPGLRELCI

Binder	pKd
QPGTPTRTAV [MAP2K2, P36507]	below the threshold

target: T8, MPP2, Q14168; assay: holdup assay; design: key: below the threshold = too weak to quantify, mostly under pKd 3.1 to 4; conditions: plain residues with an end cap or a label only (N-terminal biotin on a linker: ttds)

Binder	pKd
QPGTPTRTAV [MAP2K2, P36507]	below the threshold

target: T9, DLG3_2, Q92796; assay: holdup assay; design: key: below the threshold = too weak to quantify, mostly under pKd 3.1 to 4; conditions: plain residues with an end cap or a label only (N-terminal biotin on a linker: ttds)

Binder	pKd
QPGTPTRTAV [MAP2K2, P36507]	3.93

target: SCRIB_1, Q14160; assay: holdup assay; design: key: below the threshold = too weak to quantify, mostly under pKd 3.1 to 4; conditions: plain residues with an end cap or a label only (N-terminal biotin on a linker: ttds)
Sequence (Q14160 718-814): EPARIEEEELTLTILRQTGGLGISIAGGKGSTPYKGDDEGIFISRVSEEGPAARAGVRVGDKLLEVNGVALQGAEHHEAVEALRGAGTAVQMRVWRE

Binder	pKd
QPGTPTRTAV [MAP2K2, P36507]	below the threshold

target: T10, PTPN13_1, Q12923; assay: holdup assay; design: key: below the threshold = too weak to quantify, mostly under pKd 3.1 to 4; conditions: plain residues with an end cap or a label only (N-terminal biotin on a linker: ttds)

Binder	pKd
QPGTPTRTAV [MAP2K2, P36507]	3.66

target: FRMPD3, Q5JV73; assay: holdup assay; design: key: below the threshold = too weak to quantify, mostly under pKd 3.1 to 4; conditions: plain residues with an end cap or a label only (N-terminal biotin on a linker: ttds)
Sequence (Q5JV73 12-100): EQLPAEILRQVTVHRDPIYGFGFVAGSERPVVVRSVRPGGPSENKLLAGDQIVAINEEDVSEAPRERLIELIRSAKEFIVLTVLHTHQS

Binder	pKd
QPGTPTRTAV [MAP2K2, P36507]	below the threshold

target: NHERF2_2, Q15599; assay: holdup assay; design: key: below the threshold = too weak to quantify, mostly under pKd 3.1 to 4; conditions: plain residues with an end cap or a label only (N-terminal biotin on a linker: ttds)
Sequence (Q15599 142-238): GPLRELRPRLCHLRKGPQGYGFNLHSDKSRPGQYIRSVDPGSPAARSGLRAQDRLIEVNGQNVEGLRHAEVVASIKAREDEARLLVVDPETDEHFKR

Binder	pKd
QPGTPTRTAV [MAP2K2, P36507]	below the threshold

target: PDZRN4_1, Q6ZMN7; assay: holdup assay; design: key: below the threshold = too weak to quantify, mostly under pKd 3.1 to 4; conditions: plain residues with an end cap or a label only (N-terminal biotin on a linker: ttds)
Sequence (Q6ZMN7 213-318): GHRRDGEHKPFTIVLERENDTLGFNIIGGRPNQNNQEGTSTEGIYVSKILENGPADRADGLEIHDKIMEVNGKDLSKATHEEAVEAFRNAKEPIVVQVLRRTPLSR

Binder	pKd
QPGTPTRTAV [MAP2K2, P36507]	below the threshold

target: T11, SIPA1L2, Q9P2F8; assay: holdup assay; design: key: below the threshold = too weak to quantify, mostly under pKd 3.1 to 4; conditions: plain residues with an end cap or a label only (N-terminal biotin on a linker: ttds)

Binder	pKd
QPGTPTRTAV [MAP2K2, P36507]	below the threshold

target: DLG2_2, Q15700; assay: holdup assay; design: key: below the threshold = too weak to quantify, mostly under pKd 3.1 to 4; conditions: plain residues with an end cap or a label only (N-terminal biotin on a linker: ttds)
Sequence (Q15700 189-283): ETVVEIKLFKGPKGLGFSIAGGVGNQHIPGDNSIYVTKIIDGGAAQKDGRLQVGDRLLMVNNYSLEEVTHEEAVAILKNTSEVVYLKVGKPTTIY

Binder	pKd
QPGTPTRTAV [MAP2K2, P36507]	3.87

target: SCRIB_2, Q14160; assay: holdup assay; design: key: below the threshold = too weak to quantify, mostly under pKd 3.1 to 4; conditions: plain residues with an end cap or a label only (N-terminal biotin on a linker: ttds)
Sequence (Q14160 857-960): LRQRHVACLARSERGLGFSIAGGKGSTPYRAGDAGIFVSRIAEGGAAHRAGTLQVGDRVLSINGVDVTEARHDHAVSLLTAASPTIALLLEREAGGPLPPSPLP

Binder	pKd
QPGTPTRTAV [MAP2K2, P36507]	below the threshold

target: T12, TJP3_3, O95049; assay: holdup assay; design: key: below the threshold = too weak to quantify, mostly under pKd 3.1 to 4; conditions: plain residues with an end cap or a label only (N-terminal biotin on a linker: ttds)

Binder	pKd
QPGTPTRTAV [MAP2K2, P36507]	3.57
